Experiment [1] addresses His-tagged human AXL extracellular domain (recombinant) (human) (UniProt P30530). The experiment is described as follows: SPR classical sandwich assay (IBIS MX96): 100 nM analyte over AXL-His ECD held by the surface-captured Control antibody (f2); white cell = sandwiching.
Experiment [2] deals with chimeric mouse AXL ECD with human Ig1 domain, His-tagged (human; mouse) (UniProt Q00993). As to the kind of experiment: BLI (Octet QK384), His-tagged protein captured on Anti-Penta-HIS sensors, antibody at saturating conditions; white cell.
chimeric mouse AXL ECD with human Ig1 domain, His-tagged (human; mouse), sequence (Q00993 other isoform, or with tags, fused parts or gaps mutant limits assumed): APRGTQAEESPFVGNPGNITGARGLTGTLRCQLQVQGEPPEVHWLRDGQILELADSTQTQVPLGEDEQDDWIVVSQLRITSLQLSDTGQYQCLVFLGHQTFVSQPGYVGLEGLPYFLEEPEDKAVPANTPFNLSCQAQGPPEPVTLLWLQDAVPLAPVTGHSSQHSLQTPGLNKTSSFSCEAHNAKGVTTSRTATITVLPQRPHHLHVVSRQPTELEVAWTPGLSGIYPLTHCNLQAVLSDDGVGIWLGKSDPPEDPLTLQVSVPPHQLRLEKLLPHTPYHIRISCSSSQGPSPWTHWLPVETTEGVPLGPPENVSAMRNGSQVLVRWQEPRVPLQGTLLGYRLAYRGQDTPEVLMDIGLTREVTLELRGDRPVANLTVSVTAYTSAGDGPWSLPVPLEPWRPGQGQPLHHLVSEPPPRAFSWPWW
Experiment [3] has as its target His-tagged human AXL extracellular domain (recombinant) (human) (UniProt P30530). As to the kind of experiment: SPR classical sandwich assay (IBIS MX96): 100 nM analyte over AXL-His ECD held by surface-captured 23203-1; white cell = sandwiching.
For experiment [4] the target is unchanged. As to the kind of experiment: SPR classical sandwich assay (IBIS MX96): 100 nM analyte over AXL-His ECD held by surface-captured 10G5 analogue; grey cell = blocked (self).
Experiment [5] shares this target. As to the kind of experiment: SPR classical sandwich assay (IBIS MX96): 100 nM analyte over AXL-His ECD held by surface-captured 22883; grey cell = blocked.
The target is the same in experiment [6]. As to the kind of experiment: BLI (Octet QK384), His-tagged protein captured on Anti-Penta-HIS sensors, antibody at saturating conditions; row HuAXL_ECD, the reference of the normalization.
The target is the same in experiment [7]. As to the kind of experiment: SPR classical sandwich assay (IBIS MX96): 100 nM analyte over AXL-His ECD held by surface-captured YW327.6S2 IgG1-LALA analogue; white cell = sandwiching.
The target is the same in experiment [8]. As to the kind of experiment: SPR classical sandwich assay (IBIS MX96): 100 nM analyte over AXL-His ECD held by surface-captured 22995; white cell = sandwiching.

His-tagged human AXL extracellular domain (recombinant) (human), sequence (P30530 26-451): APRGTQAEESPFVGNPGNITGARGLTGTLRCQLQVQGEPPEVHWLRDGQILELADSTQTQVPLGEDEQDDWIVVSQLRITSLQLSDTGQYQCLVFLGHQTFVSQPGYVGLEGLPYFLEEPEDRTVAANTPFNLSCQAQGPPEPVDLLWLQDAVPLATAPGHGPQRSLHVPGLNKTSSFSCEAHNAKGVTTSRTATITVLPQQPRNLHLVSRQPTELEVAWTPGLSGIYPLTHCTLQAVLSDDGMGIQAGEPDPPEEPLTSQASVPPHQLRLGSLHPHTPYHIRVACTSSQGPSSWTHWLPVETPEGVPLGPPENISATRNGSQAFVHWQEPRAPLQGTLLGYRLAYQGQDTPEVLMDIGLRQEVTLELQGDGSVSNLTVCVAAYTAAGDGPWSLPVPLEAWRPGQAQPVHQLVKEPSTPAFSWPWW

B1: 10G5 analogue (BerGenBio) (antibody, from another filing, V domains shown)
VH: QVQLQQSGAELVRPGASVKLSCKASGYSFTDFYINWVRQRPGQGLEWIARIFPGGDNTYYNEKFKGKATLTAEESSSTAYIQLSSLTSEDSAVYFCARRGLYYAMDYWGQGISVTVSS
VL: DVLMTQTPLSLPVSLGDQASISCRSSQSLVHSNGIPYLHWYLQKPGQSPKLLIYRVSNRFSGVPDRFSGSGSGTDFTLKISRVEAEDLGVYFCSQGTHVPPTFGGGTKLEIK
Take B1: the normalized SPR sandwich response in experiment [1] is 1.2; in experiment [3] it was 1.2; in experiment [4], -0.2; in experiment [5], -0.1; in experiment [7], 1.6; in experiment [8], 1.3. The BLI response (nm) normalized to full-length human AXL-ECD in experiment [2] turned out to be 0.9; in experiment [6], 1.
